Test [1] has as its target T1, human PD-L1/His fusion protein (human, UniProt Q9NZQ7 19-239). In words: BLI Octet RED96, antibody on AHC sensor, single conc. PD-L1/His; test group 4. On the procedure:
(§1) Briefly, antibodies were characterized for affinities and binding kinetics by Octet®RED96 biolayer interferometry (Pall ForteBio LLC). Antibodies were captured by Anti-hIgG Fc Capture (AHC) Biosensors (Pall) at a concentration of 100 nM for 30 seconds. Sensors were then dipped into running buffer (1×pH 7.2 PBS, 0.05% Tween 20, 0.1% BSA) for 60 seconds to check baseline. Binding was measured by dipping sensors into a single concentration of recombinant human PD-L1/His fusion protein (Novoprotein). Dissociation was followed by dipping sensors into running buffer for 1200 seconds. The association and dissociation curves were fitted to a 1:1 Langmuir binding model using ForteBio Data Analysis software (Pall). […] The off-rate ratio serves as a data normalization. Accordingly, in each test group, the off-rate ratios of the humanized antibodies can be compared with that of the chimeric antibody, and the off-rate ratios of each of the humanized antibodies can be compared to one another within all test groups.
In general terms: Biolayer interferometry detects binding as a change in optical thickness at a sensor tip.

Test [2] has as its target T1, human PD-L1/His fusion protein. The experiment in a line: BLI off-rate; test group 4. On the procedure: as §1
For test [3] the target is unchanged. In words: BLI off-rate; test group 3. On the procedure:
as §1

Test [4] has the same target. The experiment in a line: BLI Octet RED96, antibody on AHC sensor, single conc. PD-L1/His; test group 3. The procedure:
as §1

T1 sequence (Q9NZQ7 19-239 limits assumed): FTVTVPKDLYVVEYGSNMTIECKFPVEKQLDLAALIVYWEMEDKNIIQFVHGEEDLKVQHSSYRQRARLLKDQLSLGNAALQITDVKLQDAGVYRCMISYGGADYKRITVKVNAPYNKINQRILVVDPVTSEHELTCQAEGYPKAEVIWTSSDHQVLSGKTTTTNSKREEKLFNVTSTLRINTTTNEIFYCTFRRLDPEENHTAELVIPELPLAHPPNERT

B1: EM0005-90c(G55A) (antibody, human IgG1, V domains shown)
VH: QVQLKQSGAELVRPGSSVKMSCKTSGYTFTSHSINWVKQRPGQGLEWIGYMYIGNAYTEYNEKFKGKATLTSDTSSTTAYMQLSSLTSEDSAIYFCAKITPVVAPYVMDYWGQGTSVTVSS
VL: DIVMTQTHKFMSTSVGDRVSITCKASQDVGTAVAWYQQKPGQSPKLLIYWASTRHTGVPDRFTGSGSGTDFTLTISNVQSEDLADYFCQQYSSYPYTFGGGTKLELK
notes: Chimeric antibody with G55A in CDR-H2; also called HuEM0005-90C-G55A
As for B1, the koff in test [1] came out at 0.00255 s⁻¹. In test [2], the “Off-Rate Ratio to that of EM0005-90c” value turned out to be 113%.

B2: HuEM0005-87-19 (antibody, human IgG1, V domains shown)
VH: EVQLVQSGAEVKKPGASVKVSCKASGYSFTDYYINWVRQAPGQGLEWIGETIPNTGGTTYNQKFKAKATLTVDKSTSTAYMELSSLRSEDTAVYYCARYQSGSPFAYWGQGTTVTVSS
VL: EIVMTQSPATLSVSPGERATLSCKASQNVGTAVAWYQQKPGQAPRLLIYSASNRYTGVPDRFTGSGSGTEFTLTISSLQSEDFAVYYCQQHYSTPYTFGGGTKLEIK
On to B2, for which the koff in test [1] was determined as 0.000782 s⁻¹. Further, the “Off-Rate Ratio to that of EM0005-87c” value in test [2] worked out at 87%.

B3: HuEM0005-87-24 (antibody, human IgG1, V domains shown)
VH: EVQLVQSGAEVKKPGASVKVSCKASGYSFTDYYINWVRQAPGQGLEWIGETIPNTGGTTYNQKFKAKATLTVDKSTSTAYMELSSLRSEDTAVYYCARYQSGSPFAYWGQGTTVTVSS
VL: DIVMTQSPATLSVSPGERATLSCKASQNVGTAVAWYQQKPGQAPRLLIYSASNRYTGVPDRFTGSGSGTDFTLTISSLQSEDFAVYYCQQHYSTPYTFGGGTKLEIK
The molecule B3 registered a koff in test [1] of 0.00101 s⁻¹. Besides, the “Off-Rate Ratio to that of EM0005-87c” value in test [2] worked out at 113%.

B4: HuEM0005-87-21 (antibody, human IgG1, V domains shown)
VH: EVQLVQSGAEVKKPGASVKVSCKASGYTFTDYYINWVRQAPGQGLEWMGETIPNTGGTTYNQKFKARVTMTVDTSTSTVYMELSSLRSEDTAVYYCARYQSGSPFAYWGQGTTVTVSS
VL: DIVMTQSPATLSVSPGERATLSCKASQNVGTAVAWYQQKPGQAPRLLIYSASNRYTGVPDRFTGSGSGTDFTLTISSLQSEDFAVYYCQQHYSTPYTFGGGTKLEIK
The molecule B4 displayed a koff in test [1] of 0.000522 s⁻¹. Further, in test [2], the “Off-Rate Ratio to that of EM0005-87c” value was found to be 58%.

B5: HuEM0005-87-20 (antibody, human IgG1, V domains shown)
VH: EVQLVQSGAEVKKPGASVKVSCKASGYSFTDYYINWVKQAPGQGLEWIGETIPNTGGTTYNQKFKAKATLTRDKSTSTAYMELKSLRSEDTAVYYCARYQSGSPFAYWGQGTTVTVSS
VL: EIVMTQSPATLSVSPGERATLSCKASQNVGTAVAWYQQKPGQAPRLLIYSASNRYTGVPDRFTGSGSGTEFTLTISSLQSEDFAVYYCQQHYSTPYTFGGGTKLEIK
B5 came in with a koff in test [1] of 0.000801 s⁻¹. Further, the “Off-Rate Ratio to that of EM0005-87c” value in test [2] is 89%.

B6: HuEM0005-87-22 (antibody, human IgG1, V domains shown)
VH: EVQLVQSGAEVKKPGASVKVSCKASGYTFTDYYINWVRQAPGQGLEWMGETIPNTGGTTYNQKFKARVTLTVDTSTSTVYMELSSLRSEDTAVYYCARYQSGSPFAYWGQGTTVTVSS
VL: DIVMTQSPATLSVSPGERATLSCKASQNVGTAVAWYQQKPGQAPRLLIYSASNRYTGVPDRFTGSGSGTDFTLTISSLQSEDFAVYYCQQHYSTPYTFGGGTKLEIK
Consider B6, for which, in test [1], the koff was determined as 0.000738 s⁻¹. Also, the “Off-Rate Ratio to that of EM0005-87c” value in test [2] was 82%.

B7: HuEM0005-87-23 (antibody, human IgG1, V domains shown)
VH: EVQLVQSGAEVKKPGASVKVSCKASGYTFTDYYINWVRQAPGQGLEWIGETIPNTGGTTYNQKFKARVTLTVDKSTSTVYMELSSLRSEDTAVYYCARYQSGSPFAYWGQGTTVTVSS
VL: DIVMTQSPATLSVSPGERATLSCKASQNVGTAVAWYQQKPGQAPRLLIYSASNRYTGVPDRFTGSGSGTDFTLTISSLQSEDFAVYYCQQHYSTPYTFGGGTKLEIK
The molecule B7 showed a koff in test [1] of 0.000905 s⁻¹. Further, the “Off-Rate Ratio to that of EM0005-87c” value in test [2] stood at 101%.

B8: HuEM0005-90-14 (antibody, human IgG1, V domains shown)
VH: EVQLVQSGAEVKKPGASVKVSCKASGYTFTSHSINWVRQATGQGLEWIGYMYIGNGYTEYNEKFKGRATLTSNTSISTAYMELSSLRSEDTAVYYCAKITPVVAPYVMDYWGQGTSVTVSS
VL: DIQMTQSPSFLSASVGDRVTITCKASQDVGTAVAWYQQKPGKAPKLLIYWASTRHTGVPDRFTGSGSGTEFTLTISSLQPEDFATYYCQQYSSYPYTFGQGTKLEIK
B8: the “Off-Rate Ratio to that of EM0005-90c” value in test [3] amounted to 98%. Besides, in test [4], the koff was 0.000376 s⁻¹.

B9: HuEM0005-90-16 (antibody, human IgG1, V domains shown)
VH: EVQLVQSGAEVKKPGASVKVSCKTSGYTFTSHSINWVRQATGQGLEWIGYMYIGNGYTEYNEKFKGRATLTSNTSISTAYMELSSLRSEDTAVYYCAKITPVVAPYVMDYWGQGTSVTVSS
VL: DIQMTQSPSFLSASVGDRVTITCKASQDVGTAVAWYQQKPGKAPKLLIYWASTRHTGVPDRFTGSGSGTEFTLTISSLQPEDFATYYCQQYSSYPYTFGQGTKLEIK
Consider B9, for which the “Off-Rate Ratio to that of EM0005-90c” value in test [3] came to 101%. In addition, the koff in test [4] is 0.000387 s⁻¹.

B10: HuEM0005-90-15 (antibody, human IgG1, V domains shown)
VH: EVQLVQSGAEVKKPGASVKVSCKTSGYTFTSHSINWVRQATGQGLEWMGYMYIGNGYTEYNEKFKGRVTMTSNTSISTAYMELSSLRSEDTAVYYCAKITPVVAPYVMDYWGQGTSVTVSS
VL: DIQMTQSPSFLSASVGDRVTITCKASQDVGTAVAWYQQKPGKAPKLLIYWASTRHTGVPDRFTGSGSGTEFTLTISSLQPEDFATYYCQQYSSYPYTFGQGTKLEIK
For the molecule B10, in test [3], the “Off-Rate Ratio to that of EM0005-90c” value worked out at 131%. The molecule also gave a koff in test [4] of 0.000499 s⁻¹.

B11: HuEM0005-90-17 (antibody, human IgG1, V domains shown)
VH: EVQLVQSGAEVKKPGASVKVSCKASGYTFTSHSINWVRQATGQGLEWMGYMYIGNGYTEYNEKFKGRVTLTSNTSISTAYMELSSLRSEDTAVYYCAKITPVVAPYVMDYWGQGTSVTVSS
VL: DIVMTQSPSFLSASVGDRVTITCKASQDVGTAVAWYQQKPGKAPKLLIYWASTRHTGVPDRFTGSGSGTDFTLTISSLQPEDFATYYCQQYSSYPYTFGQGTKLEIK
Consider B11, for which the “Off-Rate Ratio to that of EM0005-90c” value in test [3] is 106%. In addition, the off-rate constant (koff) in test [4] was 0.000405 s⁻¹.

B12: HuEM0005-90-20 (antibody, human IgG1, V domains shown)
VH: EVQLVQSGAEVKKPGASVKVSCKTSGYTFTSHSINWVRQATGQGLEWIGYMYIGNGYTEYNEKFKGRATLTSNTSISTAYMELSSLRSEDTAVYYCAKITPVVAPYVMDYWGQGTSVTVSS
VL: DIVMTQSPSFLSASVGDRVTITCKASQDVGTAVAWYQQKPGKAPKLLIYWASTRHTGVPDRFTGSGSGTDFTLTISSLQPEDFATYYCQQYSSYPYTFGQGTKLEIK
As to B12, the koff in test [1] was 0.00249 s⁻¹. For the same molecule, the “Off-Rate Ratio to that of EM0005-90c” value in test [2] amounted to 111%.

B13: HuEM0005-90-18 (antibody, human IgG1, V domains shown)
VH: EVQLVQSGAEVKKPGASVKVSCKASGYTFTSHSINWVRQATGQGLEWIGYMYIGNGYTEYNEKFKGRATLTSNTSISTAYMELSSLRSEDTAVYYCAKITPVVAPYVMDYWGQGTSVTVSS
VL: DIVMTQSPSFLSASVGDRVTITCKASQDVGTAVAWYQQKPGKAPKLLIYWASTRHTGVPDRFTGSGSGTDFTLTISSLQPEDFATYYCQQYSSYPYTFGQGTKLEIK
With B13, the “Off-Rate Ratio to that of EM0005-90c” value in test [3] came out at 87%. Further, the koff in test [4] was 0.000334 s⁻¹.

The term koff denotes the first-order rate constant of dissociation. Higher therefore signals a short-lived complex.

These data come from patent US20230242675A1 (SHANGHAI EPIMAB BIOTHERAPEUTICS, published 2023).
